# Source: US20150132779A1 (TOKYO METROPOLITAN INSTITUTE OF MEDICAL SCIENCE, published 2015)
# B1: trypsin-resistant tandem ubiquitin binding entity (TR-TUBE) (designed binder)
# chain: MRGCHHHHHHGMASMTGGQQMGDIGGGGSGGGVNPQLQNPEVAFQQQLEQLSAMGFLNAEANLQALIATGGDINAAIEALLGSQPSGGGGSGGGVNPQLQNPEVAFQQQLEQLSAMGFLNAEANLQALIATGGDINAAIEALLGSQPSGGGGSGGGVNPQLQNPEVAFQQQLEQLSAMGFLNAEANLQALIATGGDINAAIEALLGSQPSGGGGSGGGVNPQLQNPEVAFQQQLEQLSAMGFLNAEANLQALIATGGDINAAIEALLGSQPSGGGGSGGGVNPQLQNPEVAFQQQLEQLSAMGFLNAEANLQALIATGGDINAAIEALLGSQPSGGGGSGGGVNPQLQNPEVAFQQQLEQLSAMGFLNAEANLQALIATGGDINAAIEALLGSQPSGGGGS
# modifications: Cys residue upstream of the hexahistidine tag biotinylated with EZ-link Maleimide-PEG2-Biotin
# notes: also called 6x TR-TUBE; biotinylated TR-TUBE
# Target: T1, ubiquitin monomer (S. cerevisiae (yeast lysate), UniProt P0CG63 1-76)
# T1 construct: mature; Endogenous monomer of the yeast lysate, seen by western blot in the pull-down experiment; also called monoubiquitin (free, in yeast lysate)
# Assay: pull-down from yeast lysate with biotinylated TR-TUBE and streptavidin beads, anti-ubiquitin western blot
# Procedure: For Ub-ProT assay of yeast extracts, 30 OD₆₀₀ units of log-phase cells were harvested and lysed with glass beads in 300 μl of lysis buffer (50 mM Tris-HCl [pH 7.5], 100 mM NaCl, 10% glycerol, 10 μM MG132, 10 mM iodoacetamide, and 1× complete protease inhibitor cocktail [Roche, EDTA-free]). After centrifugation, the supernatant (100 μg) was incubated with TR-TUBE (10 μg) for 1 h at 4° C. Next, TR-TUBE-bound polyubiquitylated proteins were incubated with Dynabeads MyOne Streptavidin C1 (1 mg, Life Technologies) for 45 min at 4° C. The beads were washed three times with PBS-T, and then incubated in 100 μl of 50 mM AMBC, 0.01% Rapigest SF, and trypsin (1.5 μg) overnight at 37° C. […] After the beads were washed with PBS-T, the polyubiquitin chains were selectively eluted by 30-min incubation with 1× NuPAGE LDS sample buffer. The samples were directly subjected to electrophoresis on NuPAGE gels in order to avoid aggregation of polyubiquitin chains.
# The inventors of the present invention next investigated the mean lengths of substrate-attached polyubiquitin chains in yeast lysate. To the knowledge of the inventors of the present invention, the actual chain lengths of polyubiquitylated proteins in vivo have not been previously determined. In this experiment, the inventors of the present invention used a drug-sensitive pdr5 mutant to determine the effect of a proteasome inhibitor, MG132. […]
# T1 sequence (P0CG63 1-76 limits assumed): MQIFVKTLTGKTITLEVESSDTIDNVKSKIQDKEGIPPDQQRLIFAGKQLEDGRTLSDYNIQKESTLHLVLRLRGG
binder,measurement,value
B1,binding result,no binding
